Test results reported in PMC4030970, “Structural Evidence for the Tetrameric Assembly of Chemokine CCL11 and the Glycosaminoglycan Arixtra™” (Biomolecules, 2013).
Several values for one entry are separate records, joined by “and”; a condition that tells them apart may be missing. Equal entries are not always repeated.

Legend:
[1] = biological target: human chemokine CCL11 (Eotaxin-1) (human) (UniProt P51671); assay: native MS; ion mobility MS (Waters Synapt G2 HDMS), nanospray; equimolar (1:1) mixture of CCL11 and Arixtra in 250 mM ammonium acetate; oligomers seen unbound and bound to Arixtra; MS/MS of the [tetramer+Arixtra]12+ ion gives monomer and trimer+Arixtra
[2] = biological target: human chemokine CCL11 (Eotaxin-1) (human) (UniProt P51671); assay: native MS; ion mobility MS (Waters Synapt G2 HDMS), nanospray; CCL11 alone at 20 μM in 250 mM ammonium acetate (pH 6.8), native conditions
[3] = biological target: human chemokine CCL11 (Eotaxin-1) (human) (UniProt P51671); assay: crystal structure; very preliminary X-ray structure of the CCL11 tetramer bound to Arixtra; de-twinned; Rfactor 17.6%, Rfree 26.7%; not deposited

stoichiometry N ([1]; Dimer + Arixtra): 2
stoichiometry N ([1]; Tetramer + Arixtra): 4
stoichiometry N [2]: 4 and 2
stoichiometry N [3]: 4
Substance: human chemokine CCL11 (Eotaxin-1), P51671 24-97 (natural protein; other documents disagree on this pair)
